Data reported in US20260063625A1, “COMPOSITIONS FOR AND METHODS OF DETECTING FOOD TOXINS” (priority 2022, published 2026).
Where a chain is given by its changes, count along the chain named. Names and notes keep the numbering of the source.

How the values were obtained:
[1] = format: binding; settings: 1.1 μM Sxph, 0-20 μM STX
[2] = Isothermal titration calorimetry (ITC) of STX into Sxph; format: binding; settings: 25° C.
Procedure: ITC measurements were performed at 25° C. using a MicroCal PEAQ-ITC calorimeter (Malvern Panalytical). […]. This STX stock was diluted with the SEC buffer to prepare 100 μM or 300 μM STX solutions having a final buffer composition of 135 mM NaCl, 9 mM HEPES, pH 7.4. […]. The calorimetric experiment settings were: reference power, 5 μcal/s; spacing between injections, 150 s; stir speed 750 rpm; and feedback mode, high. Data were analyzed using MicroCal PEAQ-ITC Analysis Software (Malvern Panalytical) using a single binding site model. The heat of dilution from titrations of 100 μM STX in 135 mM NaCl, 9 mM HEPES, pH 7.4 into 135 mM NaCl, 9 mM HEPES, pH 7.4 was subtracted from each experiment to correct the baseline.

[3] = Fluorescence polarization (FP) binding to fluorescein labeled STX; settings: T = 298K; for […]G (kcal mol^−1) relative to RcSxph: […]G = RT ln (Kd(XSxph)/Kd(RcSxph)); for […]G (kcal mol^−1) relative to wild-type RcSxph: […]G = RT ln (KdSxph mutant/KdSxph)
Procedure: […]; Measurements were performed at 25° C. on a Synergy H1 microplate reader (BioTek) using the polarization filter setting (excitation 485 nm, emission 528 nm). […]. The dissociation constants were calculated using GraphPad Prism by fitting fluorescence millipolarization (mP=P·10^−3, where P is polarization) as a function of Sxph concentration using the equation: P={(Pbound−Pfree) [Sxph]/(Kd+[Sxph])}+Pfree, where P is the polarization measured at a given Sxph concentration, Pfree is the […], and Pbound is the maximum polarization of Sxph bound by F-STX (Rossi and Taylor, Hansen et al.).

[4] = test system: PtNaV1.4; assay: Two-electrode voltage clamp: Sxph rescue of PtNaV1.4 from STX block in Xenopus oocytes; format: cell-based, Phyllobates terribilis; settings: [Sxph]:[STX] ratio, 100 nM STX

B1: NpSxph: Saxiphilin of Nanorana parkeri, High Himalaya frog, SEQ ID NO:2 (protein, listed as Nanorana parkeri)
chain: MALTFHTALYFTIVGLSFAASDARHVQWCTISHLEQKKCNDLVGSCNVPDITLACVYRSSTENCMAAIKDGQADAMFLDSGDVYKASLDHYNLKPIIAEPYSLHRELTKCLKHRQESLGGDKMVKGRYIPQCDEKGNYHPVQCHASTGYCWCVNANGEKIEGTNTTPVQTPPTCPSQVLTKCLKERQEALGGKRIAIGRYIPQCDEQGNYRPMQCHGSTGYCWCVNAIGEKIEGTNTPPGNTQPTCQSHDWDTCHYAVAVVKNSSTFQFGQLKGKRSCHSGLSKTDGWNAPVNVFVEKKLLPWDGLAKGSIERAVSKFFSASCIPGATETNLCKQCIGEEEKKCKSSHDEPYYGDHGAFRCLQEDKGDVAFLKNTALPDEHSGVYELLCPDNTRKPLNKYKECNLGKVPADAVVTRKAGDKTKDINDFLLEAQKKKCKLFGSPHGKDLMFDDSTTHLAPLPSEIDAFFFLGVKWYNAMKALTEDVKLPSKNKVRWCTINKPEMMKCKDWAAVSGGAIACTEASCPEHCVKQILKGEADAVTLDVQYMYMALMCGLLPAVEEYPNKDDFHPCQIPGSTIKDFGTKRAVALVKKSNKDIKWNNLKGKKSCHTHVGDIPGWVIPAGLISNQNDNIDIESFFGESCAPGSDTNSKLCKLCIGDPENPKASTRCSLSDKEAYYGNEGAFRCLVEKGDVAFVPHTVVFANTDGKNPAEWAKDLKSEDFEILCLDGSRAPVTNYRGCNLSGLPPRAIVTREESVSDVVRILINQQSLYGRNGFEKDMFQMFSSAKGQNLLFNDETQCLIEFDRQPKDIMEDYFGVRYYTAVYSASRSAVPSELIPACTFKHC
[1]
  DTm ([…]Tm=TmSxph+20 μM toxin−TmSxph), STX: 3.6 °C
[2]
  […]G: -11.8 ± 0.1 kcal/mol
  […]H (kcal mol^−1), binding enthalpy: -18.7 ± 0.2 kcal/mol
  […]S (cal mol^−1 K^−1): −23.2 ± 0.8 cal mol^−1 K^−1
[2]; listed as NpSxph WT
  […]H (kcal mol^−1), binding enthalpy: -18.7 ± 0.2 kcal/mol
[3]
  […]G (kcal mol^−1) relative to RcSxph: -1.60 kcal/mol

B2: RcSxph: Saxiphilin of Rana (Lithobates) catesbeianus, American bullfrog, SEQ ID NO:1 (protein)
chain: MAPTFQTALFFTIISLSFAAPNAKQVRWCAISDLEQKKCNDLVGSCNVPDITLVCVLRSSTEDCMTAIKDGQADAMFLDSGEVYEASKDPYNLKPIIAEPYSSNRDLQKCLKERQQALAKKMIGHYIPQCDEKGNYQPQQCHGSTGHCWCVNAMGEKISGTNTPPGQTRATCERHELPKCLKERQVALGGDEKVLGRFVPQCDEKGNYEPQQFHGSTGYSWCVNAIGEEIAGTKTPPGKIPATCQKHDLVTTCHYAVAMVKKSSAFQFNQLKGKRSCHSGVSKTDGWKALVTVLVEKKLLSWDGPAKESIQRAMSKFFSVSCIPGATQTNLCKQCKGEEGKNCKNSHDEPYYGNYGAFRCLKEDMGDVAFLRSTALSDEHSEVYELLCPDNTRKPLNKYKECNLGTVPAGTVVTRKISDKTEDINNFLMEAQKRQCKLFSSAHGKDLMFDDSTLQLALLSSEVDAFLYLGVKLFHAMKALTGDAHLPSKNKVRWCTINKLEKMKCDDWSAVSGGAIACTEASCPKGCVKQILKGEADAVKLEVQYMYEALMCGLLPAVEEYHNKDDFGPCKTPGSPYTDFGTLRAVALVKKSNKDINWNNIKGKKSCHTGVGDIAGWVIPVSLIRRQNDNSDIDSFFGESCAPGSDTKSNLCKLCIGDPKNSAANTKCSLSDKEAYYGNQGAFRCLVEKGDVAFVPHTVVFENTDGKNPAVWAKNLKSEDFELLCLDGSRAPVSNYKSCKLSGIPPPAIVTREESISDVVRIVANQQSLYGRKGFEKDMFQLFSSNKGNNLLFNDNTQCLITFDRQPKDIMEDYFGKPYYTTVYGASRSAMSSELISACTIKHC
[1]
  DTm ([…]Tm=TmSxph+20 μM toxin−TmSxph), STX: 3.6 °C
[2]
  […]G: -12.3 ± 0.5 kcal/mol
  […]H (kcal mol^−1), binding enthalpy: -16.1 ± 0.2 kcal/mol
  […]S (cal mol^−1 K^−1): −12.7 ± 0.9 cal mol^−1 K^−1
[2]; listed as RcSxph WT
  […]H (kcal mol^−1), binding enthalpy: -16.1 ± 0.2 kcal/mol
[3]
  […]G (kcal mol^−1) relative to RcSxph: 0 kcal/mol
  […]G (kcal mol^−1) relative to wild-type RcSxph: 0 kcal/mol
[4]
  Effective Rescue Ratio50 (ERR50): 1.07±0.02

B3: D794E: RcSxph mutant D794E (protein)
chain: B2 chain with D813E
[2]
  […]G: -8.9 ± 0.1 kcal/mol
  […]H (kcal mol^−1), binding enthalpy: -11.8 ± 0.0 kcal/mol
  […]S (cal mol^−1 K^−1): −8.9 ± 0.1 cal mol^−1 K^−1
[3]
  […]G (kcal mol^−1) relative to wild-type RcSxph: 2.94 kcal/mol

B4: E540D: RcSxph mutant E540D (protein)
chain: B2 chain with E559D
[2]
  […]G: -9.8 ± 0.1 kcal/mol
  […]H (kcal mol^−1), binding enthalpy: -16.3 ± 1.7 kcal/mol
  […]S (cal mol^−1 K^−1): −21.9 ± 5.7 cal mol^−1 K^−1
[3]
  […]G (kcal mol^−1) relative to wild-type RcSxph: 1.54 kcal/mol

B5: Y558I: RcSxph mutant, isoleucine for tyrosine at position 558 (protein)
chain: B2 chain with Y577I
[2]
  […]G: -12.2 ± 0.3 kcal/mol
  […]H (kcal mol^−1), binding enthalpy: -15.5 ± 0.3 kcal/mol
  […]S (cal mol^−1 K^−1): −10.5 ± 0.6 cal mol^−1 K^−1
[3]
  […]G (kcal mol^−1) relative to wild-type RcSxph: -1.07 kcal/mol
[4]
  Effective Rescue Ratio50 (ERR50): 0.81±0.01

B6: D794A: RcSxph mutant D794A (protein)
chain: B2 chain with D813A
[1]
  DTm ([…]Tm=TmSxph+20 μM toxin−TmSxph), STX: complete loss of the thermal shift
[3]
  […]G (kcal mol^−1) relative to wild-type RcSxph: 4.43 kcal/mol

B7: F561A: RcSxph mutant F561A (protein)
chain: B2 chain with F580A
[2]
  […]G: -10.8 ± 0.1 kcal/mol
  […]H (kcal mol^−1), binding enthalpy: -12.7 ± 0.2 kcal/mol
  […]S (cal mol^−1 K^−1): −6.6 ± 0.9 cal mol^−1 K^−1
[3]
  […]G (kcal mol^−1) relative to wild-type RcSxph: 0.48 kcal/mol

B8: I782A: RcSxph mutant, alanine for isoleucine at position 782 (protein)
chain: B2 chain with I801A
[1]
  DTm ([…]Tm=TmSxph+20 μM toxin−TmSxph), STX: DTm increases relative to wild-type
[3]
  […]G (kcal mol^−1) relative to wild-type RcSxph: -0.53 kcal/mol
[4]
  Effective Rescue Ratio50 (ERR50): 0.87±0.02

B9: E540A: RcSxph mutant E540A (protein)
chain: B2 chain with E559A
[1]
  DTm ([…]Tm=TmSxph+20 μM toxin−TmSxph), STX: complete loss of the thermal shift
[3]
  […]G (kcal mol^−1) relative to wild-type RcSxph: 4.52 kcal/mol
[4]
  Effective Rescue Ratio50 (ERR50): eliminated

B10: D785N: RcSxph mutant D785N (protein)
chain: B2 chain with D804N
[1]
  DTm ([…]Tm=TmSxph+20 μM toxin−TmSxph), STX: DTm increases relative to wild-type
[3]
  […]G (kcal mol^−1) relative to wild-type RcSxph: -0.30 kcal/mol

B11: Y558A: RcSxph mutant, alanine for tyrosine at position 558 (protein)
chain: B2 chain with Y577A
[2]
  […]G: -12.2 ± 0.2 kcal/mol
  […]H (kcal mol^−1), binding enthalpy: -15.3 ± 0.0 kcal/mol
  […]S (cal mol^−1 K^−1): −11.1 ± 1.1 cal mol^−1 K^−1
[3]
  […]G (kcal mol^−1) relative to wild-type RcSxph: -1.00 kcal/mol

B12: P727A: RcSxph mutant P727A (protein)
chain: B2 chain with P746A
[2]
  […]G: -10.3 ± 0.2 kcal/mol
  […]H (kcal mol^−1), binding enthalpy: -11.5 ± 0.0 kcal/mol
  […]S (cal mol^−1 K^−1): −4.2 ± 0.9 cal mol^−1 K^−1
[3]
  […]G (kcal mol^−1) relative to wild-type RcSxph: 1.21 kcal/mol
[4]
  Effective Rescue Ratio50 (ERR50): > 4
